Biological target: SARS-CoV-2 nucleocapsid C-terminal domain (N-CTD) (SARS-CoV-2, UniProt P0DTC9 247-364)
Assay: fluorescence intensity

Binder: UCUCUAAACG (ssRNA) [FAM-labelled 10-mer TRS RNA probe]
- binding result: binds

Reference: publication doi:10.1101/2024.10.11.617762
